Residue numbers refer to the chain shown, from its start. Read-outs that look alike come from different tables or passages of the source. Each block holds one binder with its values, some of them ahead of it.
Tests used:
[1] = target: T1, SIRPα V1-his (ACRO, Cat #SIA-H5225) (human, UniProt P78324 31-370); assay: SPR (Biacore), antibody captured by anti-Fc on CM5, 50 nM SIRPα V1-his injected, 1:1 model
T1 construct: not shown: His tag
Experimental: Using the Biacore analysis system, activators were prepared by mixing 400 mM EDC and 100 mM NHS and activated with a CM5 sensor chip at a flow rate of 10 μL/min for 420 s. Anti-Fc antibody at 30 μg/mL dissolved in 10 mM NaAc (pH 4.5) was injected into the channel at a flow rate of 10 μL/min and then closed with 1 M ethanolamine-HCl at a flow rate of 10 μL/min for 420 s. […] All experimental data were fitted using a 1:1 binding model.

[2] = target: T2, SIRPα-V1 on 293T-SIRPα-V1 cells (human, UniProt P78324 31-504); assay: FACS titration on 293T-SIRPα-V1 cells, goat anti-hIgG-AF488 (panel SIRPα-V1)
T2 construct: Stably transfected cell line
Experimental: (§1) After washing, cells were stained by 0.2 μg of goat anti-hIgG-AF488 at 4° C. for 30 min, resuspended in […] of DPBS/1% FBS, and analyzed by FlowJo V10 and GraphPad Prism6 software.

[3] = target: T1, SIRPα V1-his (ACRO, Cat #SIA-H5225); assay: ELISA: coated SIRPα-V1-his, antibody titrated, goat anti-hIgG Fc HRP (panel SIRPα-V1)
Experimental: (§2) 100 μL of 1 μg/mL of SIRPα-V1-his, SIRPα-V2-his and SIRPα-V8-his (Sino Biological, Cat #30015-H08H) were coated overnight at 4° C. in Maxisorp ELISA 96-well plates. […] After washing, 100 μL of 1:5000 dilution of goat Anti-hIgG Fc HRP (Invitrogen, Cat #A18823) was added to each well and incubated for 1 h. TMB substrate was used for color development and enzyme marker readings.

[4] = target: T2, SIRPα-V1 on 293T-SIRPα-V1 cells; assay: competition FACS: 293T-SIRPα-V1 cells, antibody titrated against CD47-FITC, % of blocking (panel SIRPα-V1-CD47)
Experimental: (§3) After washing, cells were analyzed by utilizing FlowJo V10 and GraphPad Prism6 software.

[5] = target: T1, SIRPα V1-his (ACRO, Cat #SIA-H5225); assay: competition ELISA: coated SIRPα-V1-his, antibody titrated against biotin-CD47, streptavidin-HRP (panel SIRPα-V1-CD47)
Experimental: 100 μL of 1 μg/mL of recombinant SIRPα-V1-his and SIRPα-V2-his were coated overnight at 4° C. in Maxisorp ELISA 96-well plates. […] After washing, each well was added with 0.2 μg Streptavidin-HRP, substrate TMB, and read by an enzyme marker.

[6] = target: T1, SIRPα V1-his (ACRO, Cat #SIA-H5225); assay: BLI (ForteBio Octet RED 96): SIRPα V1-his on Ni-NTA biosensor, antibody in a 1:2 series of 7 concentrations (row SIRPα-V1)
Experimental: 5 μg/mL SIRPα V1-his and SIRPα V2-his was loaded to a Ni-NTA biosensor for 600 s, respectively. […] The binding time was 200 s and the dissociation time was 600 s. The data were fitted to calculate the affinity.

[7] = target: T3, cynomolgus macaques SIRPα-his (ACRO, Cat #SIA-C52H7) (cynomolgus macaque, UniProt A0A2K5VYQ9 31-369); assay: ELISA: coated cynomolgus macaques SIRPα-his, antibody titrated, goat anti-hIgG Fc HRP (left panel)
T3 construct: also called Monkey SIRPα; cynomolgus macaque SIRPα
T3 sequence: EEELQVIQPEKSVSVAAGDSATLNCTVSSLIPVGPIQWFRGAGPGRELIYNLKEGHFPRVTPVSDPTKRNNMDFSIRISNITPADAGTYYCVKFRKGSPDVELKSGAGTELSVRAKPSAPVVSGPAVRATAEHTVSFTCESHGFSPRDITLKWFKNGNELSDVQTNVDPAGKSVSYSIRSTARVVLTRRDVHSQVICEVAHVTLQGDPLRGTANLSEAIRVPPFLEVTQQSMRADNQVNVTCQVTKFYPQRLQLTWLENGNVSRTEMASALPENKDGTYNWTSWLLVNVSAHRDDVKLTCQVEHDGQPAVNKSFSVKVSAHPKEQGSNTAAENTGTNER
Experimental: 100 μL of 1 μg/mL of cynomolgus macaques SIRPα-his were coated overnight at 4° C. in Maxisorp ELISA 96-well plates. […] After washing, each well was incubated with 100 μL of 1:5000-fold diluted goat anti-hIgG Fc HRP for 1 h at 37° C. and then substrate TMB, and read by an enzyme marker.

[8] = target: T4, SIRPγ on cells (Jurkat cells) (UniProt Q9P1W8 29-387); assay: FACS titration on SIRPγ-carrying cells, goat anti-hIgG-AF488 (panel SIRPγ)
T4 construct: whole, on cells

[9] = target: T5, SIRPα-V8-his (Sino Biological, Cat #30015-H08H); assay: ELISA: coated SIRPα-V8-his, antibody titrated, goat anti-hIgG Fc HRP (panel SIRPα-V8)
T5 construct: The His tag belongs to the same chain; not shown: exact C-terminal limit of the vendor's construct
Experimental: as §2

[10] = target: T6, SIRPα-V8 on stably transfected cells (Homo sapiens (Human), UniProt P78324 31-504); assay: competition FACS: 293T-SIRPα-V8 cells, antibody titrated against CD47-FITC, % of blocking (panel SIRPα-V8-CD47)
T6 construct: also called CHOZN-SIRPα-V8; 293T-SIRPα-V8
Experimental: as §3

[11] = target: T6, SIRPα-V8 on stably transfected cells; assay: FACS titration on 293T-SIRPα-V8 cells, goat anti-hIgG-AF488 (panel SIRPα-V8)
Experimental: as §1

[12] = target: SIRPα-V2 on CHOZN-SIRPα-V2 cells (Homo sapiens (Human), UniProt P78324 31-504); assay: competition FACS: CHOZN-SIRPα-V2 cells, antibody titrated against CD47-FITC, % of blocking (panel SIRPα-V2-CD47)
Experimental: as §3

[13] = target: T6, SIRPα-V8 on stably transfected cells; assay: FACS titration on CHOZN-SIRPα-V8 cells, goat anti-hIgG-AF488 (panel SIRPα-V8)
Experimental: (§4) 2×10⁵ per well of stable transfer construct cell lines 293T-SIRPα-V1 (SEQ ID NO: 2), CHOZN-SIRPα-V2 (SEQ ID NO: 38), and CHOZN-SIRPα-V8 (SEQ ID NO: 39) in logarithmic phase were dispended in 96-well U-shaped culture plates, […] After washing, the cells were incubated with 0.2 μg of goat anti-hIgG-AF488 for 30 min at 4° C., then resuspended in 50 μL of DPBS/1% FBS and analyzed by flow cytometry with FlowJo V10 and GraphPad Prism6 software.

[14] = target: T2, SIRPα-V1 on 293T-SIRPα-V1 cells; assay: FACS titration on 293T-SIRPα-V1 cells, goat anti-hIgG-AF488 (panel SIRPα-V1); remark: listed apart in the source
Experimental: as §4

B1: Z6 (antibody, IgG1, V domains shown)
VH: QVQLQESGPGLVKPSQTLSLTCTVSGFSLTGYGVNWIRQPPGKGLEWIGIIWGDGSTDYNSALKSRVTISKDTSKNQVFLKLSSVTAADTAVYYCARAGKMDYWGQGTTVTVSS
VL: DIVLTQSPASLAVSPGQRATITCRASESVDSYGNSFMHWYQQKPGQPPKPLIYLASNLESGVPARFSGSGSRTDFTLTINPVEANDAANYYCQQNNEYPWTFGGGTKVEIK
notes: also called humanized variant Z6
- Kd [1]: 2340 pM
- koff [1]: 0.00165 s⁻¹
- kon [1]: 708000 M⁻¹ s⁻¹

B3: Z5 (antibody, IgG1, V domains shown)
VH: B1 VH
VL: B1 VL with P50L
notes: also called humanized variant Z5
- Kd [1]: 27800 pM
- koff [1]: 0.0208 s⁻¹
- kon [1]: 747000 M⁻¹ s⁻¹

B9: BI 765063 (antibody, V domains shown)
VH: EVQLVQSGAEVKKPGESLRISCKASGYSFTSYWVHWVRQMPGKGLEWMGNIDPSDSDTHYSPSFQGHVTLSVDKSISTAYLQLSSLKASDTAMYYCVRGGTGTLAYFAYWGQGTLVTVSS
VL: DVVMTQSPLSLPVTLGQPASISCRSSQSLVHSYGNTYLYWFQQRPGQSPRLLIYRVSNRFSGVPDRFSGSGSGTDFTLKISRVEAEDVGVYYCFQGTHVPYTFGGGTKVEIKR
- EC50 (read off the curve) [2]: ~1000 pM
- EC50 (read off the curve) [3]: ~50 pM
- IC50 (read off the curve) [4]: ~300 pM
- IC50 (read off the curve) [5]: ~4000 pM
- Kd [6]: < 1 pM
- koff [6]: < 1e-07 s⁻¹

B10: H7L4-G1 (antibody, human IgG1, kappa)
heavy: not shown
light: DIVLTQSPASLAVSPGQRATITCRASESVDSYGNSFMHWYQQKPGQPPKPLIYLASNLESGVPARFSGSGSGTDFTLTINPVEANDAANYYCQQNNEYPWTFGGGTKVEIKRTVAAPSVFIFPPSDEQLKSGTASVVCLLNNFYPREAKVQWKVDNALQSGNSQESVTEQDSKDSTYSLSSTLTLSKADYEKHKVYACEVTHQGLSSPVTKSFNRGEC
notes: Humanized antibody with wild type human IgG1 and kappa; also called H7L4-G1w
- EC50 (read off the curve) [7]: ~40 pM
- binding result [8]: binds
- EC50 (read off the curve) [2]: ~500 pM
- EC50 (read off the curve) [9]: ~20 pM
- IC50 (read off the curve) [10]: ~10000 pM
- EC50 (read off the curve) [3]: ~30 pM
- IC50 (read off the curve) [4]: ~200 pM
- EC50 (read off the curve) [11]: ~800 pM
- IC50 (read off the curve) [5]: ~3000 pM
- IC50 (read off the curve) [12]: ~100 pM
- Kd [6]: < 1 pM
- koff [6]: < 1e-07 s⁻¹

B11: H7L4-G1lala (antibody, human IgG1, kappa, L234A L235A)
heavy: not shown
light: B10 light
notes: also called humanized antibody H7L4
- EC50 (read off the curve) [7]: ~40 pM
- binding result [8]: binds
- EC50 (read off the curve) [2]: ~400 pM
- EC50 (read off the curve) [9]: ~20 pM
- IC50 (read off the curve) [10]: ~7000 pM
- EC50 (read off the curve) [13]: ~600 pM
- EC50 (read off the curve) [3]: ~30 pM
- IC50 (read off the curve) [4]: ~100 pM
- EC50 (read off the curve) [11]: ~600 pM
- IC50 (read off the curve) [5]: ~3000 pM
- IC50 (read off the curve) [12]: ~200 pM
- Kd [6]: < 1 pM
- koff [6]: < 1e-07 s⁻¹
- EC50 (read off the curve) [14]: ~3000 pM

Now from value to binder:

- Kd [1]: 3610 pM
- koff [1]: 0.00269 s⁻¹
- kon [1]: 744000 M⁻¹ s⁻¹
B2: Z1 (antibody, IgG1, V domains shown)
VH: B1 VH with K71V
VL: B1 VL with R72G
notes: also called humanized variant Z1

- Kd [1]: 2270 pM
- koff [1]: 0.0016 s⁻¹
- kon [1]: 708000 M⁻¹ s⁻¹
B4: Z9 (antibody, IgG1, V domains shown)
VH: B1 VH with A88D, V92R
VL: B1 VL
notes: also called humanized variant Z9

- Kd [1]: 25300 pM
- koff [1]: 0.0194 s⁻¹
- kon [1]: 768000 M⁻¹ s⁻¹
B5: Z8 (antibody, IgG1, V domains shown)
VH: B1 VH with A88D, V92R
VL: B1 VL with P50L
notes: also called humanized variant Z8

- Kd [1]: 1980 pM
- koff [1]: 0.00154 s⁻¹
- kon [1]: 775000 M⁻¹ s⁻¹
B6: Z4 (antibody, IgG1, V domains shown)
VH: B1 VH
VL: B1 VL with R72G
notes: also called humanized variant Z4

- Kd [1]: 4170 pM
- koff [1]: 0.00292 s⁻¹
- kon [1]: 699000 M⁻¹ s⁻¹
B7: Z3 (antibody, IgG1, V domains shown)
VH: B1 VH with K71V
VL: B1 VL
notes: also called humanized variant Z3

- Kd [1]: 2010 pM
- koff [1]: 0.00151 s⁻¹
- kon [1]: 754000 M⁻¹ s⁻¹
B8: Z7 (antibody, IgG1, V domains shown)
VH: B1 VH with A88D, V92R
VL: B1 VL with R72G
notes: also called humanized variant Z7

Source: US20240368301A1 (HANGZHOU JIUYUAN GENE ENGINEERING, published 2024)
